Paper PMC10938136

Target: Komagataella phaffii Ero1 (Komagataella phaffii) (UniProt F2QNN1)
Chain of UniProt F2QNN1 (F2QNN1 entry or part of it): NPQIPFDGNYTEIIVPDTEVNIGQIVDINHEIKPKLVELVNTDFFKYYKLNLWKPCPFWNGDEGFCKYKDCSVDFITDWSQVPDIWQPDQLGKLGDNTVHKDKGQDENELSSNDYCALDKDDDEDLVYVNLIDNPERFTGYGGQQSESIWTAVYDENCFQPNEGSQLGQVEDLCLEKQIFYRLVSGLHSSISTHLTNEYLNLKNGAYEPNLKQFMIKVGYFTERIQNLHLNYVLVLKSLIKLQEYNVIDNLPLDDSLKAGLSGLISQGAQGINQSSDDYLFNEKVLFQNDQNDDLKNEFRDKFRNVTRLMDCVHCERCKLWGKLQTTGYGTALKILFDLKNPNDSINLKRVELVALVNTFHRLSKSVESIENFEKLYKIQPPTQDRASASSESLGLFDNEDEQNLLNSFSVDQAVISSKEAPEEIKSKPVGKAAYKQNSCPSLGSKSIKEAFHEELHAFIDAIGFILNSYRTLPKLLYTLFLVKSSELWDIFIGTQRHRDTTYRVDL

## Komagataella phaffii Erp41, full length, purified (enzyme)
  K M PDI for Erp41 as substrate of 1 μM Ero1–Pdi1 complex, oxygen consumption assay (titration of Erp41, 10 mM GSH): 7.07 µM
  kcat of oxygen consumption, 1 μM Ero1–Pdi1 complex plus 10 μM Erp41: 1.95 s⁻¹
